We go through 1 protein from patent publication US20040266684.

For the data set, the target named is T1, purified human Lys77-Plasminogen, P00747.
T1 chain: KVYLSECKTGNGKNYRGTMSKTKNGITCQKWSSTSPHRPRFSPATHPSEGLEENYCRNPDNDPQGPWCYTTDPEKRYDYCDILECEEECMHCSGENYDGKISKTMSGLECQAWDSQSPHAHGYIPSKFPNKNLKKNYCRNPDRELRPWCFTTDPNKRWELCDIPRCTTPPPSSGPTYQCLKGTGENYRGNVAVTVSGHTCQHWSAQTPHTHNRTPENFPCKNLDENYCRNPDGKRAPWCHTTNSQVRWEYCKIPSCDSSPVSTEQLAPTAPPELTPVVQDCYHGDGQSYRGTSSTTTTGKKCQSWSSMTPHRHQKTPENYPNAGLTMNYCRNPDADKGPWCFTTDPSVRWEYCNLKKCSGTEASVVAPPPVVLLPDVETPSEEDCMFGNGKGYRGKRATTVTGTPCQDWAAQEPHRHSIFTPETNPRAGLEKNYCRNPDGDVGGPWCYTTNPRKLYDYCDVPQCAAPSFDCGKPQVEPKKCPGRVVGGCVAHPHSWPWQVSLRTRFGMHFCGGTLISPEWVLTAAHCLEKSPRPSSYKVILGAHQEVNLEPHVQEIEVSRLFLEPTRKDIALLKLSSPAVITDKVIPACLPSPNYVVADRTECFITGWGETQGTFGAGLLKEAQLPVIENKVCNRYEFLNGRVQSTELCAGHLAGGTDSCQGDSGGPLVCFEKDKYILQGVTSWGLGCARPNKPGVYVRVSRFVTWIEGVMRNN

B1: thiolated streptokinase (protein)
chain: IAGPEWLLDRPSVNNSQLVVSVAGTVEGTNQDISLKFFEIDLTSRPAHGGKTEQGLSPKSKPFATDSGAMSHKLEKADLLKAIQEQLIANVHSNDDYFEVIDFASDATITDRNGKVYFADKDGSVTLPTQPVQEFLLSGHVRVRPYKEKPIQNQAKSVDVEYTVQFTPLNPDDDFRPGLKDTKLLKTLAIGDTITSQELLAQAQSILNKNHPGYTIYERDSSIVTHDNDIFRTILPMDQEFTYRVKNREQAYRINKKSGLNEEINNTDLISEKYYVLKKGEKPYDPFDRSHLKLFTIKYVDVDTNELLKSEQLLTASERNLDFRDLYDPRDKAKLLYNNLDAFGIMDYTLTGKVEDNHDDTNRIITVYMGKRPEGENASYHLAYDKDRYTEEEREVYSYLRYTGTPIPDNPNDK
As to B1, the “plasmin generated in the plasminogen activation assay (S-2251 substrate units)” value is reported as “thiolated SK (1 nM) generated plasmin at a nearly linear of 4225 SU/ml”.
